Laboratory results from the RNAGym collection of RNA variant scans (doi:10.1073/pnas.2313332121).

B1: TPR t1 (parent)
chain: GACCAAUCUGCCCUCAGAGCUCGAGAACAUCUUCGGAUGCAGAGGAGGCAGGCUUCGGUGGCGCGAUAGCGCCAACGUCCUCAACCUCCAAUGCAUCCCACCACAUGAUGAUGCCUGAAGAGCCUUGGUUUUUUG

Variants of: B1
Test: polymerase ribozyme fitness, log enrichment relative to wild type (log ratio); higher = more active; in vitro selection for triplet polymerase activity
In short: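 A heterodimeric triplet polymerase ribozyme had each of its subunits mutagenized by PCR into a library, which was transcribed. One round of in vitro selection, done in triplicate, annealed each library with a biotinylated primer, its partner subunit and triplets, then incubated it frozen at −7 °C before gel excision of extended constructs, streptavidin-bead capture and RT-PCR. Fitness is the logarithm of genotype enrichment relative to wild-type enrichment, based on Illumina sequencing of inputs and outputs and inverse-variance-weighted replicate averages. A base-2 logarithm is used, and genotypes were kept only with ≥10 input reads and ≥1 read per output.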

| Variant | polymerase ribozyme fitness (log ratio) |
| --- | --- |
| GACCAAUCUGCCCUCAGAGCUCGAGAACAUCUUCGGAUGCAGAGGAGGCAGGCUUCGGUGGCGCGAUAGCUCCAACGUCCUCAACCUCCAAUGCAUCCCACCACAUGAUGAUGCCUGAAGAGCGUCGGUUUUUUG [G71U C124G U126C] | 2.04 |
| GACCAAUCUGCCCUCAGAGCUCGAGAACAUCUUCGGAUGCAGAGGAGGCAGGCUUCGGUGGCGCGAUAGCGACAACGUCCUCCACCUCCAAUGCAACCCACCACAUGAUAAUGCCUGAAGAGCCUUGGUUUUUUG [C72A A83C U96A G110A] | -2.24 |
| GACCAAUCUGCCCUCAGAGCUCGAGAACAUCUUCGGAUGCAGAGGAGGCAGGCUUCGGUGGCGCGAUAGCGACAACGUCCUCAACCUCCAAUGCAUCCCCCCACAUGAUGAUGCCUGAAAAGCCUUGGUUUUUUG [C72A A100C G120A] | -0.61 |
| GACCAAUCUGCCCUCAGAGCUCGAGAACAUCUUCGGAUGCAGAGGAGGCAGGCUUCGGUGGCGCGAUAGCGACACCGUCCUCAACCUCCAAUGCAUCCCACCACAUGAUGAUGCCUGAAGAGCCUUGGUUUUUUG [C72A A75C] | -0.344 |
| GACCAAUCUGCCCUCAGAGCUCGAGAACAUCUUCGGAUGCAGAGGAGGCAGGCUUCGGUGGCGCGAUAGCUCCAACGUCCUCAACCUCCAAUGCAUCCCACCACAUGAUGAUGCCUGAAGAGCCUUGGUUUUAUG [G71U U133A] | -0.757 |
| GACCAAUCUGCCCUCAGAGCUCGAGAACAUCUUCGGAUGCAGAGGAGGCAGGCUUCGGUGGCGCGAUAGCGACAACGUCCUCAACCUCCAAUGCAUCCCACCACAUGAUGAUGCCUGCAGAGCCUUGGUUUUUUG [C72A A118C] | -2.72 |
| GACCAAUCUGCCCUCAGAGCUCGAGAACAUCUUCGGAUGCAGAGGAGGCAGGCUUCGGUGGCGCGAUAGCUCCAACGUCCUCAACCUCCAAUGCAUCCCACCACAUGAUGAUGCCUAAAGAGCCUUGGUCUUUUG [G71U G117A U130C] | -1.71 |
| GACCAAUCUGCCCUCAGAGCUCGAGAACAUCUUCGGAUGCAGAGGAGGCAGGCUUCGGUGGCGCGAUAGCUCCAACGUCCUCAACCUCCAAUGCAUCCCACCACAUGAUGAAGCCUGAAGAGCCUUGGUUUUUUG [G71U U112A] | 1.49 |
| GACCAAUCUGCCCUCAGAGCUCGAGAACAUCUUCGGAUGCAGAGGAGGCAGGCUUCGGUGGCGCGAUAGCUCCAACGUCCUCAACCUCCAAUGCAUCCCACCACAUGAUGAUGCCUGAAGAACCUUGGUUUUUUG [G71U G122A] | -0.705 |
| GACCAAUCUGCCCUCAGAGCUCGAGAACAUCUUCGGAUGCAGAGGAGGCAGGCUUCGGUGGCGCGAUAGCUCCAACGUCCUCAACCUCCAAUGCAUCCCACCACAUGAUGAUGCCUGAAGAGCGUUGGUUUUUUG [G71U C124G] | 1.72 |
| GACCAAUCUGCCCUCAGAGCUCGAGAACAUCUUCGGAUGCAGAGGAGGCAGGCUUCGGUGGCGCGAUAGCUCCAACGUCCCCAACCUCCAAUACAUCCCACCACAUGAUGAUGCCUGAAAAGCCUUGGUUUUUUG [G71U U81C G93A G120A] | -0.964 |
| GACCAAUCUGCCCUCAGAGCUCGAGAACAUCUUCGGAUGCAGAGGAGGCAGGCUUCGGUGGCGCGAUAGCGACAACGUCCUCAACCUCCACUGCAUCCCACCACAUGAUGAUGCCUGAAGAGCCUUAGUUUUUUG [C72A A91C G127A] | -2.21 |
| GACCAAUCUGCCCUCAGAGCUCGAGAACAUCUUCGGAUGCAGAGGAGGCAGGCUUCGGUGGCGCGAUAGCGACAACGUCCUCGACCUCCAAUGCAUCCCACCACAUGAUGAUGCCUGAAGAGCCUUGGUUUUUUG [C72A A83G] | -0.951 |
| GACCAAUCUGCCCUCAGAGCUCGAGAACAUCUUCGGAUGCAGAGGAGGCAGGCUUCGGUGGCGCGAUAGCGACAACGUCCUCAACCUCCAAUGCAUCCCACCACAUGAUGAUGCCUGAAGCGCCUUGGUUUUUUG [C72A A121C] | 1.46 |
| GACCAAUCUGCCCUCAGAGCUCGAGAACAUCUUCGGAUGCAGAGGAGGCAGGCUUCGGUGGCGCGAUAGCGACAACGUCCUCAACCUCCAAUGCAUCCCACCACAUGAUGAUGCCUGAAGGGCCUUGGUUUUUUG [C72A A121G] | 1.6 |
| GACCAAUCUGCCCUCAGAGCUCGAGAACAUCUUCGGAUGCAGAGGAGGCAGGCUUCGGUGGCGCGAUAGCUCCAACGUCCUCAACCUCCAAUGCAUCCCACCACAUGAUGAUGCCUGAAGAGCCUUUGUUUUUUG [G71U G127U] | -1.02 |
| GACCAAUCUGCCCUCAGAGCUCGAGAACAUCUUCGGAUGCAGAGGAGGCAGGCUUCGGUGGCGCGAUAGCUCCAACGUCCUCAACCUCCAAUGCAUCCCACCACAUGAUGAUGCCUGAAGAGCCUUGGUUAUUUG [G71U U131A] | 0.00469 |
| GACCAAUCUGCCCUCAGAGCUCGAGAACAUCUUCGGAUGCAGAGGAGGCAGGCUUCGGUGGCGCGAUAGCUCCAACGUCCUCAACCUCCAAUGCAUCCCACCACAUGAUGAUGCCUGAAGAGCCUUGGUUUCUUG [G71U U132C] | -0.492 |
| GACCAAUCUGCCCUCAGAGCUCGAGAACAUCUUCGGAUGCAGAGGAGGCAGGCUUCGGUGGCGCGAUAGCUCCAACGUCCUCAACCUCCAAUGCAUCCCACCACAUGAUGAUGCCUGAAGAGCCUGGGUUUUUUG [G71U U126G] | -2.34 |
| GACCAAUCUGCCCUCAGAGCUCGAGAACAUCUUCGGAUGCAGAGGAGGCAGGCUUCGGUGGCGCGAUAGCUCCAACGUCCUCAACCGCCAAUGCAUCCCACCACAUGAUGAUGCCUGAAGAGCCUUGGUUUUUUG [G71U U87G] | -0.424 |
| GACCAAUCUGCCCUCAGAGCUCGAGAACAUCUUCGGAUGCAGAGGAGGCAGGCUUCGGUGGCGCGAUAGCUCCAACGUCCUCAACCACCAAUGCAUCCCACCACAUGAUGAUGCCUGAAGAGCCUUGGUUUUUUG [G71U U87A] | -1.3 |
